Assay [1] deals with Sti1 G193C–G309C N39A, labelled with ATTO 532 and ATTO 647 (S. cerevisiae) (UniProt P15705).
Assay [2] addresses Sti1 G193C–G309C N435A, labelled with ATTO 532 and ATTO 647 (S. cerevisiae) (UniProt P15705).
The target of assay [3] is Sti1 G193C–G309C, labelled with ATTO 532 and ATTO 647 (S. cerevisiae) (UniProt P15705).
Chain of Sti1 G193C–G309C, labelled with ATTO 532 and ATTO 647 (S. cerevisiae) (P15705 whole entry G193C/G309C): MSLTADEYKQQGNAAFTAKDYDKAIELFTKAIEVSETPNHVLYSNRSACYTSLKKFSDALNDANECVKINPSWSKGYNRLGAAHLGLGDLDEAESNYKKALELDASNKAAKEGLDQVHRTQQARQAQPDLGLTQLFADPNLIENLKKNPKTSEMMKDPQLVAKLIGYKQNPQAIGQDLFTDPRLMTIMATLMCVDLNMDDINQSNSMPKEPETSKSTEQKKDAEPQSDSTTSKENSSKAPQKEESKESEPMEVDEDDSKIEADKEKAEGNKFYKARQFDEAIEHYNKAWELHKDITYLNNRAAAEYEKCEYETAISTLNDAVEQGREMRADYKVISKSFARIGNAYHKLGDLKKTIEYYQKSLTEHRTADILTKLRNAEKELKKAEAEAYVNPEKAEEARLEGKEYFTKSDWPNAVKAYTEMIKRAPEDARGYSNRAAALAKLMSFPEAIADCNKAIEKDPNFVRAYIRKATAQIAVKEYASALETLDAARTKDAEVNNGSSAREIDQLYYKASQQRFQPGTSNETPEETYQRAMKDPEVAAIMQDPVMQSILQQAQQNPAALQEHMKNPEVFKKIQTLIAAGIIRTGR

Chain of yHsp70 (Ssa1), P10591 1-642 (natural protein; ATTO 532 and ATTO 647 on the two cysteines (labelled stochastically)) (P10591 whole entry): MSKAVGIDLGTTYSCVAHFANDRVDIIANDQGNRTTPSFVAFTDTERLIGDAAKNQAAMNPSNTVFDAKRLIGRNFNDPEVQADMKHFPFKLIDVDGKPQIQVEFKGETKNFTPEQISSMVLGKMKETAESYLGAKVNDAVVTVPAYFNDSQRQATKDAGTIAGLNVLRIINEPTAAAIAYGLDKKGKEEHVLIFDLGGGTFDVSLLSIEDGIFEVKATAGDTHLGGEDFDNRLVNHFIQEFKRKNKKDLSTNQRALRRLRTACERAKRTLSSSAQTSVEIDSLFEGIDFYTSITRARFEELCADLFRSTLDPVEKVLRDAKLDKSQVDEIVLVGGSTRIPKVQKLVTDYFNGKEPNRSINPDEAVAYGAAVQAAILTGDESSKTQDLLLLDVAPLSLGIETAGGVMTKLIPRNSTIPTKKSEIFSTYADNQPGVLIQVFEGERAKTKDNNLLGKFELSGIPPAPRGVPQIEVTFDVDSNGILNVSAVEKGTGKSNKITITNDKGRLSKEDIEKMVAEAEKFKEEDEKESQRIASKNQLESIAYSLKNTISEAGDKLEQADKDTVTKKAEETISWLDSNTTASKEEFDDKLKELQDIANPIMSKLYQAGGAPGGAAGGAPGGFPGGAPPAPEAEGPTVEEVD
Chain of Sti1 G193C–G309C N39A, labelled with ATTO 532 and ATTO 647 (S. cerevisiae) (P15705 whole entry N39A/G193C/G309C): as the sequence (P15705 whole entry G193C/G309C) above, with N39A counted along it
Chain of Sti1 G193C–G309C N435A, labelled with ATTO 532 and ATTO 647 (S. cerevisiae) (P15705 whole entry G193C/G309C/N435A): as the sequence (P15705 whole entry G193C/G309C) above, with N435A counted along it

Substance “yHsp70 (Ssa1), P10591 1-642 (natural protein; ATTO 532 and ATTO 647 on the two cysteines (labelled stochastically))” registered a dynamic traces (%) in surface-based spFRET (TIRF) of Sti1 encapsulated in vesicles with 25 μM Hsp70; 13 without Hsp in assay [1] of 27%. Moreover, the dynamic traces (%) in surface-based spFRET (TIRF) of Sti1 encapsulated in vesicles with 25 μM Hsp70; 17 without Hsp worked out at 15% in assay [2] and 28% in assay [3].

As for “yHsp90 (Hsp82), P02829 1-709 (natural protein; ATTO 532 and ATTO 647 on the two cysteines (labelled stochastically))”, in assay [1], the dynamic traces (%) in surface-based spFRET (TIRF) of Sti1 encapsulated in vesicles with 10 μM Hsp90; 13 without Hsp is 27%. The values for the dynamic traces (%) in surface-based spFRET (TIRF) of Sti1 encapsulated in vesicles with 10 μM Hsp90; 17 without Hsp in assay [2] and in assay [3] were 26% and 31%, respectively.

The values are drawn from paper PMC4403447.
